Article PMC8085152 (Journal of molecular biology, 2021)
Each block holds one molecule with its values, some of them ahead of it.

Experiments:
[1] = target: α-synuclein (αS) monomers, full-length 1-140 (UniProt P37840); assay: co-sedimentation
[2] = target: TDP-43 PrLD sonicated fibrils (UniProt Q13148 267-414); assay: ThT fluorescence seeding kinetics

- stoichiometry N (TDP-43 PrLD per αS) [1]: 1.2
Molecule: TDP-43 PrLD (residues 267-414) monomers, hexahistidine-TEV fusion construct (from UniProt Q13148 267-414) (domain or fragment)

- binding result [2]: binds
B1: TDP-43 PrLD (residues 267-414) monomers, hexahistidine-TEV fusion construct (domain or fragment, UniProt Q13148 267-414, looked up)
chain: NRQLERSGRFGGNPGGFGNQGGFGNSRGGGAGLGNNQGSNMGGGMNFGAFSINPAMMAAAQAALQSSWGMMGMLASQQNQSGPSGNNQNQGNMQREPNQAFGSGNNSYSGSNSGAAIGWGSASNAGSGSGFNGGFGSSMDSKSSGWGM
